This note sets out measurements from US20230220071A1 (Hoffmann-La Roche, published 2023).

Test [1] addresses T1, biotinylated human transferrin receptor (human, UniProt P02786 89-760, limits assumed, biotinylated (mono-biotinylated in Example 13)).
T1 construct: also called human transferrin receptor-biotinylated; mono-biotinylated human transferrin receptor
Briefly: SPR BIAcore B4000, biotinylated TfR captured, 25 C. How it is done: (§1) A CAP sensor chip (provided in the Biotin CAPture Kit, series S #28-9202-34 GE) was mounted into a BIAcore B4000 system, normalized and addressed in a hydrodynamic manner, according to the manufacturer's instructions. In the first cycle the CAP reagent (as provided in the Kit) was addressed to spot 1, 2, 4 and 5 with a flow rate of 10 μL/min for 300 sec. The human transferrin receptor capture took place in spot 1 (human transferrin receptor-biotinylated) and spot 5 (cynomolgus transferrin receptor-biotinylated) with a flow rate of 10 μL/min and a contact time of 30 sec. The receptors were diluted to a concentration of 50 nM with running buffer (1×PBS #28995084, GE Healthcare, supplemented with 0.25 M NaCl). The antibodies were injected into all flow cells in a concentration series of 100 nM, 50 nM, 25 nM and 0 nM for 180 sec at a flow speed of 30 μL/min. Dissociation time was set to 300 sec. Regeneration of the whole complex from the CAP chip has been performed utilizing the regeneration solution provided in the Biotin CAPture Kit (120 sec with a flow rate of 10 μL/min). To control the active protein concentration a second cycle was performed in spot 5 utilizing biotinylated protein A (#P2165-2MG, Sigma) with a flow rate of 10 μL/min and a contact time of 30 sec. Spot 1 was kept empty in this control cycle. The antibodies and the regeneration were handled like in cycle 1. Relevant kinetic data was calculated using the BIAcore B4000 evaluation software. The dissociation from the human transferrin receptor has been determined applying the 1:1 dissociation fit.
(In general: Surface plasmon resonance follows binding to a sensor surface in real time, without labels.)

Test [2] concerns the target T2, human transferrin receptor on stably transfected CHO-K1 cells (human, UniProt P02786 1-760).
T2 construct: whole, on cells; also called hTfR-CHO; huTfR
As to the kind of experiment: FACS on hTfR-CHO cells.

Test [3] has as its target T3, cynomolgus transferrin receptor on stably transfected CHO-K1 cells (cynomolgus).
T3 construct: whole, on cells; also called Cyno TfR-CHO; cyTfR
As to the kind of experiment: FACS, cyno TfR against human TfR. (Flow cytometry measures light scatter and fluorescence of single cells or particles in a stream.)

The target in test [4] is T4, human transferrin receptor (BIAcore, construct not stated) (human, UniProt P02786 89-760).
T4 construct: also called huTfR
Briefly: SPR (BIAcore), human TfR against cyno TfR.

The target of test [5] is T3, cynomolgus transferrin receptor on …. As to the kind of experiment: FACS on cyTfR CHO cells.
The target of test [6] is T4, human transferrin receptor (BIAcore, …). As to the kind of experiment: SPR (BIAcore).
Test [7] deals with T5, cynomolgus transferrin receptor (BIAcore, construct not stated) (cynomolgus, UniProt H9EXL1 89-760 (rhesus entry)).
T5 construct: also called cyTfR; Cyno TfR
Briefly: SPR (BIAcore).

Test [8] addresses T6, biotinylated cynomolgus transferrin receptor (cynomolgus).
T6 chain: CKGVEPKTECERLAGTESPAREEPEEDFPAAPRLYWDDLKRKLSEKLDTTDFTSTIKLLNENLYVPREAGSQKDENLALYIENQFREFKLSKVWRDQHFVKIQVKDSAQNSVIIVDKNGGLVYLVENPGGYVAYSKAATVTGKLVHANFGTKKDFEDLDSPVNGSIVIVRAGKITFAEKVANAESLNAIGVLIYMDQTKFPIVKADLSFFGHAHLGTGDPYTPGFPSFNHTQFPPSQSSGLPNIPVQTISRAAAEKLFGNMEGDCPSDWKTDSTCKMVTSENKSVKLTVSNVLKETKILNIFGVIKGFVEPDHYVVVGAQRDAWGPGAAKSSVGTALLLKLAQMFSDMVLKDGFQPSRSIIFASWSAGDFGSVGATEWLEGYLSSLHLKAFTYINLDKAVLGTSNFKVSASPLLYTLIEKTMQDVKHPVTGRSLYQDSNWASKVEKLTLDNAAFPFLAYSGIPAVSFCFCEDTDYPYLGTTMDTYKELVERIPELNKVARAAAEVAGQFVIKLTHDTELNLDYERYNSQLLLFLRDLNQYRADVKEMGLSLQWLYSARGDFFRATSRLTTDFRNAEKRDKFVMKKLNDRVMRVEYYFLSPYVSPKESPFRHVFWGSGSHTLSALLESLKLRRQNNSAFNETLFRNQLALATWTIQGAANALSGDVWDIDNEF
Briefly: SPR BIAcore T200, biotinylated TfR captured, 25 C. How it is done: For all analysis the Biotin CAPture Kit from GE Healthcare (Instruction 28-9242-34 AB) was used. First the chip was rehydrated by docking it in the BIAcore T200 instrument. After that, the chip was left on standby with running buffer overnight. For surface preparation the Biotin CAPture Reagent was diluted 1:100 in running buffer (1×PBS, supplemented with 0.25 M NaCl). This solution was injected on Flow Cells 1 to 4 for 360 sec with a flow rate of 2 μL/min. Next the sensor surface was conditioned with three one-minute injections of regeneration solution provided in the Biotin CAPture Kit. This has to be done for the docking procedure or for the first time or after storage. A 100 nM human or cynomolgus, respectively, mono-biotinylated transferrin receptor solution should be injected on Flow Cell 2 for 30 sec at a flow rate of 10 μL/min. […] They were injected on the “hu-TfR-flow cell” (e.g. Flow Cell 2 as prepared as outlined above) with an injection time of 180 sec (association) and a flow rate of 10 μL/min. After dissociation phase of 600 sec the surface was regenerated according to the manufacturer's instructions with the regeneration solution provided in the Biotin CAPture Kit and the next cycle was carried out.
The kinetic data was evaluated using the BIAcore T200 evaluation software. Especially the dissociation rate constants of the different human transferrin receptor binders were taken into account after the application of the 1:1 Langmuir binding model.

Test [9] concerns the target T6, biotinylated cynomolgus transferrin …. Briefly: SPR BIAcore B4000, biotinylated TfR captured, 25 C. How it is done: as §1

Changes are numbered by the printed parent chain.

T1 sequence (P02786 89-760 limits assumed): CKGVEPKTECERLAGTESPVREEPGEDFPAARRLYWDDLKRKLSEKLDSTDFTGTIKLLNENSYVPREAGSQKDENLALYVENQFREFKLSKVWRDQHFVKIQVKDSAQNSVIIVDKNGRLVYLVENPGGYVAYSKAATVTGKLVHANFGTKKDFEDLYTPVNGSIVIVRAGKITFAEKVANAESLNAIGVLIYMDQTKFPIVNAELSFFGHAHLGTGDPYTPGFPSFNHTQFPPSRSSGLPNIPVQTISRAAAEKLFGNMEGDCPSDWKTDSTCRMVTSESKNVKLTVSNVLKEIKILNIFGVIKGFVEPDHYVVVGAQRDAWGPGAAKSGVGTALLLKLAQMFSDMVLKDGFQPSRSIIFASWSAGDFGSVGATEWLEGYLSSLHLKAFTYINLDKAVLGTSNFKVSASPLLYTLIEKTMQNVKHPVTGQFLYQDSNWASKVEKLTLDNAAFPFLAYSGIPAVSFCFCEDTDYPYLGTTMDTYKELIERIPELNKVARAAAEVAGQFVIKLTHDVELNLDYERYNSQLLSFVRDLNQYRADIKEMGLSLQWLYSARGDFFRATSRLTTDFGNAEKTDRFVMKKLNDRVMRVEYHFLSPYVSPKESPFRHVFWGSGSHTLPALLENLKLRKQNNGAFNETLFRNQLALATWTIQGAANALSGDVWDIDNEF

B1: VH23-DANG / VK17-TYS (antibody, V domains shown)
VH: QSMQESGPGLVKPSQTLSLTCTVSGFSLSSYAMSWIRQHPGKGLEWIGYIWSGGSTDYASWAKSRVTISKTSTTVSLKLSSVTAADTAVYYCARRYGTSYPDYGDANGFDPWGQGTLVTVSS
VL: AIQLTQSPSSLSASVGDRVTITCRASQSISSYLAWYQQKPGKAPKLLIYRASTLASGVPSRFSGSGSGTDFTLTISSLQPEDFATYYCQQTYSSSNVDNTFGGGTKVEIK
What is called koff is the first-order rate constant of dissociation. Higher therefore signals a short-lived complex. On to B1, for which the koff in [1] came out at 0.00229 s⁻¹.

B2: VH9-DANG / VK9-NYA (antibody, V domains shown)
VH: QQLLESGGGLVQPGGSLRLSCAASGFTFSSYAMSWVRQAPGKGLEWVGYIWSGGSTDYADSVKGRFTISRDNSKNTLYLQMNSLRAEDTAVYYCAKRYGTSYPDYGDANGFDPWGQGTLVTVSS
VL: B1 VL with T91N, S93A
Regarding B2, in test [1], the koff was determined as 0.00182 s⁻¹.

B3: VH23-DANG / VK15-AYS (antibody, V domains shown)
VH: B1 VH
VL: DIVMTQSPDSLAVSLGERATINCKSSQSISSYLIWYQQKPGQPPKLLIYRASTLASGVPDRFSGSGSGTDFTLTISSLQAEDVAVYYCQQAYSSSNVDNTFGGGTKVEIK
For the molecule B3, the koff in [1] was 0.00697 s⁻¹.

B4: VH7-DANG / VK6-SYS (antibody, V domains shown)
VH: B2 VH with L4V, S6T, V11I, T27S, F28L, V47I, D60S, S61W, V62A, K96R
VL: B1 VL with A34S, T91S
B4 came in with a koff in test [1] of 0.0308 s⁻¹.

B5: VH9-DANG / VK2-SYS (antibody, V domains shown)
VH: B2 VH
VL: B1 VL with A1D, L4M, A34N, T91S
In test [1], B5 gave a koff of 0.0402 s⁻¹.

B6: murine anti-transferrin receptor antibody 128.1 (antibody, V domains shown)
VH: QVQLVQSGAEVKKPGASVKVSCKASGYTFTGYTMNWVRQAPGQGLEWMGRINPHNGGTDYAQKFQGRVTMTRDTSISTAYMELSRLRSDDTAVYYCARGYYYYSLDYWGQGTLVTVSS
VL: DIQMTQSPSSLSASVGDRVTITCRASSSIRYIHWYQQKPGKAPKRLIYDTSNLASGVPSRFSGSGSGTEFTLTISSLQPEDFATYYCHQRNSYPWTFGQGTRLEIK
notes: Mouse anti-human TfR antibody
The EC50 is the midpoint of the concentration-response curve. A high value points to a need for much substance. Usually Kd stands for the constant that tells how readily two partners part at equilibrium. Low readings indicate tighter binding, high ones weaker binding. The kon is the rate constant with which the complex forms. A higher kon goes with faster complex formation. B6: the EC50 in test [2] was 0.096 µg/mL; in test [5], 0.314 µg/mL. The “ratio EC50 Cyno/human” value in [3] came to 3.3. Further, the “ratio max Cyno/human” value in test [3] was 0.6. Also, the “ratio t1/2 human/Cyno” value in test [4] is 90.2. In addition, the koff in [6] stood at 0.000606 s⁻¹; in test [7], 0.0547 s⁻¹; in test [8] it was 0.0733 s⁻¹; in [9] it was 0.0778 s⁻¹. Further, binding in [8] was characterised by a dissociation constant (Kd) of 136 nM. The same molecule had a kon in [8] of 541000 M⁻¹ s⁻¹.
